According to US9120865B2, “T cell epitopes of the Cyn d 1 allergen from bermuda grass pollen” (Circassia Limited, priority 2001, dated 2015):

How the values were obtained:
[1] = tested on: oligoclonal T cell blasts from Bermuda grass pollen-specific T cell lines; assay: Oligoclonal T cell proliferation assay (3HTdR incorporation); type: cell-based, human; settings: for number of patients in whom the peptide elicited proliferation: 13 Cyn d 1-reactive patients, SI≧2.5 considered significant
Text: Bermuda grass pollen-specific T cell lines were isolated with the use of our well-established methods for thegeneration of allergen-specific T cell populations (O'Hehir, R. E., Young, D. B., Kay, A. B., Lamb, J. R., Immunology, 62:635-640, 1987; O'Hehir, R. E., Askonas, B. A., Lamb, J. R., Vol 3, Heidelberg:Springer-Verlag, p 120-138, 1993). Briefly, PBMC were separated from heparinized venous blood by density gradient centrifugation over Ficoll Paque (Pharmacia, Sweden). PBMC were initially stimulated for 1 week in 24-well plates (Costar, USA; 2.5×10^6 PBMC/well) with a previously determined optimal concentration of Bermuda grass pollen extract (50 μg/ml) for 7 days in complete medium (RPMI-1640 medium, Gibco Life Technologies, supplemented with 2 mmol/L L-glutamine, 100 IU/ml penicillin/streptomycin, and 5% screened, heat inactivated human AB^+ serum, Sigma Chemical Company, USA) at 37° C., 5% CO2. A two week line was established by restimulating the T cell blasts with Bermuda grass pollen extract in the presence of irradiated (3000 rads) autologous PBMC every 7 days, with the addition of interleukin-2 (5% vol/vol; Lymphocult-TLF, Biotest Folex, Frankfurt, Germany) every 3-4 days. In all experiments, T cells were rested for 7 days after the last addition of antigen and antigen presenting cells (APC) before use in proliferation assays. We have previously shown that CD4+ T cells are preferentially expanded in these cultures.
Oligoclonal T cell blasts (5×10^4/well) from the Bermuda grass pollen-specific T cell lines were stimulated in triplicate with Bermuda grass pollen extract (25, 50, 100 μg/ml), purified Cyn d 1 (2.5, 5, 10 μg/ml) and the Cyn d 1 peptides (1, 10 μg/ml) in the presence of an equal number of irradiated autologous PBMC as APC for 72 hours in 96-well round bottom plates (ICN Biomedicals, USA). Cultures of T cells and APC in the absence of antigen or with added IL-2 were included as negative and positive controls respectively. After 72 hours, cultures were pulsed with 1 μCi/well of tritiated methyl thymidine (^3HTdR; Amersham, USA) and harvested 16 hours later onto glass fibre filters. Proliferation as correlated with ^3HTdR incorporation was measured by liquid scintillation spectroscopy. Results are expressed as change in mean counters per minute above background (Acpm) or as a stimulation index (SI, cpm of antigen stimulated T cells divided by cpm of unstimulated T cells) to allow easier comparison between subjects with different background incorporation. Stimulation index values ≧2.5 are considered significant. Production of IL-5 and IFN-γ by Bermuda grass pollen-specific oligoclonal T cells

[2] = tested on: oligoclonal house dust mite-reactive CD4+ T cells; assay: Mitogenicity check with irradiated PBMC; type: cell-based, human; settings: data not shown
Experimental: (§1) Antigens • (i) Bermuda grass pollen. • Bermuda grass pollen was purchased from Greer Laboratories Inc. (Lenoir, N.C., USA) as dry, non-defatted pollen. One gram of pollen was extracted in 5 ml of 1 mM NH4HCO3 overnight at 4° C. on a rotating wheel. After centrifugation, the supernatant was dialyzed against PBS overnight. The extract was filtered through a 0.2 μm filter. The protein content of the extract was determined using the Bio-Rad Microassay (Bio-Rad, USA). • (ii) Cyn d 1. • Cyn d 1 was generated by the Bermuda grass pollen extract first undergoing an 80% ammonium sulphate precipitation. […] The protein content was determined using the Bio-Rad Microas say. • (iii) Peptides. • Synthetic peptides (20-mers overlapping by 11 or, for the two N-terminal peptides, 15 residues) spanning the entire length of the Cyn d 1 molecule were purchased from Mimotopes (Clayton, Australia; FIG. 2) (CD1 isoform, Smith et al., 1996, supra). • (iv) Mitogenicity and Toxicity. • Mitogenicity of Bermuda grass pollen, Cyn d 1 and Cyn d 1 peptides was excluded by culturing with oligoclonal house dust mite-reactive CD4^+ T cells in the presence of irradiated peripheral blood mononuclear cells (PBMC), and toxicity was excluded by co-culture of antigens with the HDM-reactive T cells in the presence of IL-2 (data not shown).

HDM-reactive T cells = assay: Toxicity check by co-culture of antigens in the presence of IL-2; type: cell-based, human; settings: data not shown
Experimental: as §1

IL-5 = assay: Production of IL-5 by Bermuda grass pollen-specific oligoclonal T cells (sandwich ELISA of culture supernatants); type: cell-based, human; settings: pre-SIT; supernatants at 48 hours
Experimental: (§2) Production of IL-5 and IFN-γ by cultured oligoclonal T cells was assessed by harvesting supernatants from proliferation assays at 48 hours after stimulation, with replacement by an equal volume of complete medium, and measurement of cytokine levels by sandwich ELISA. White 96-well maxisorp ELISA plates (Nalgene NUNC, Denmark) were coated with rat anti-mouse/human IL-5 (PharMingen, USA) or mouse anti-human IFN-γ (endogen, USA) at 2 μg/ml and incubated overnight at 4° C. The plates were washed with 0.5% Tween 20/PBS and blocked with 1% BSA/PBS for 1 hour at room temperature. The plates were washed again and the culture supernatants from pooled triplicate assays added in duplicate to the wells. A standard curve was established using known concentrations of human recombinant IL-5 (PharMingen, USA) and IFN-γ (Endogen, USA). The plates were incubated with either 1 μg/ml biotinylated rat anti-human IL-5 (PharMingen, USA) or 0.5 μg/ml biotinylated mouse anti-human IFN-γ (Endogen, USA) for 1 hour at room temperature. After washing the plates, streptavidin-biotinylated horseradish peroxidase (Amersham, USA), at a dilution of 1:2000, was added to each well and incubated for 45 minutes at room temperature. […] The plates were read on a LumiCount microplate glow luminometer (Packard Instrument Company, USA). […]

IgE = settings: sera from Bermuda grass pollen-allergic patients; cited from earlier work
IFN-γ = assay: Production of IFN-γ by Bermuda grass pollen-specific oligoclonal T cells (sandwich ELISA of culture supernatants); type: cell-based, human; settings: pre-SIT; supernatants at 48 hours
Experimental: as §2

**Q.** For “EGGAHLVQDDVIPANWKPDT (human) [Cyn d 1(217-236), synthetic 20-mer peptide of Cyn d 1, residues 217-236]”, which “number of patients in whom the peptide elicited proliferation” value (from here on “number of patients”) ([1]; pre-immunotherapy) is on record?
**A.** 8 patients

**Q.** With “LVQDDVIPANWKPDTVYTSK (human) [Cyn d 1(222-241), synthetic 20-mer peptide of Cyn d 1, residues 222-241]” as the molecule, how does the “number of patients” value ([1]; pre-immunotherapy) read?
**A.** 6 patients

**Q.** With “MKSSWGAIWRIDPKKPLKGP (human) [Cyn d 1(190-209), synthetic 20-mer peptide of Cyn d 1, residues 190-209]” as the molecule, how does the “number of patients” value ([1]; pre-immunotherapy) read?
**A.** 6 patients

**Q.** For “PKDSDEFIPMKSSWGAIWRI (human) [Cyn d 1(181-200), synthetic 20-mer peptide of Cyn d 1, residues 181-200]”, which “number of patients” value ([1]; pre-immunotherapy) is on record?
**A.** 6 patients

**Q.** With “SGKAFGAMAKKGQEDKLRKA (human) [Cyn d 1(109-128), synthetic 20-mer peptide of Cyn d 1, residues 109-128]” as the molecule, how does the “number of patients” value ([1]; pre-immunotherapy) read?
**A.** 8 patients

B1: Cyn d 1: major allergen protein of Bermuda grass pollen, purified from the pollen extract by ammonium sulphate precipitation and G-75 Sephadex (protein)
chain: AIGDKPGPNITATYGNKWLEAKATFYGSNPRGAAPDDHGGACGYKDVDKPPFDGMTACGNEPIFKDGLGCGACYEIKCKEPVECSGEPVLVKITDKNYEHIAAYHFDLSGKAFGAMAKKGQEDKLRKAGELTLQFRRVKCKYPSGTKITFHIEKGSNDHYLALLVKYAAGDGNIVAVDIKPKDSDEFIPMKSSWGAIWRIDPKKPLKGPFSIRLTSEGGAHLVQDDVIPANWKPDTVYTSKLQFGA
modifications: human
notes: major allergen protein of Bermuda grass pollen, purified from the pollen extract by ammonium sulphate precipitation and G-75 Sephadex
**Q.** With B1 as the molecule, how does the Mitogenicity [2] read?
**A.** excluded

**Q.** And the toxicity (HDM-reactive T cells)?
**A.** excluded

**Q.** And the “change in proliferative responses / recognition” value ([1]; following SIT)?
**A.** marked decrease

**Q.** And the “patients with decreased proliferation” value ([1]; following one year of SIT)?
**A.** 11/13

**Q.** What about the “patients whose Bermuda grass pollen-specific T cell lines showed proliferative T cell responses” value ([1]; pre-immunotherapy, 2-week T cell lines from 14 patients) of the same molecule?
**A.** 13/14

**Q.** And the “IL-5 secreted in response to stimulation” value (IL-5)?
**A.** High levels

**Q.** And the predominant humoral recognition (IgE)?
**A.** > 76%

**Q.** What about the “IFN-γ secreted in response to stimulation” value (IFN-γ) of the same molecule?
**A.** High levels
